From the nanobody polyreactivity screen of Harvey et al. (2022)

Assay: yeast display, Sf9 membrane polyspecificity reagent, FACS + sequencing; frameworks hold sequencing errors
How it was run: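 Polyreactivity labels are assigned by the sorting gate from which each nanobody was recovered. The gates were low and high (top ~1%), set on anti-HA fluorescence for expression and streptavidin fluorescence for reagent binding. Before sorting, galactose-induced (36–48 hours) yeast display cells were stained for 1 hour at 4 °C with 10% biotinylated, detergent-solubilized Sf9 membrane reagent.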

Sequence	polyreactivity (PSR sort gate)
QVQLEESGRGLVQAGGSLRLSCAASGSIFGVYTMGWYRPAPRKDRELVAAISASGGRTYYADSVKGRFTISRDTAKITVYLQMNSLKPEDTAVYYCAARASKGYGWYDYWGQGTQVTVSS	high polyreactivity
QVQLVESGGGLVQAGGSLRLSCAASGGTFISYAMGWYRQAPGKERELVAAISRGGSSTYYADSVKGRFTISRDNAKNTVYLQMNSLKPEDTAVYYCNKAYHRRDSEFGYWGQGTQVTVSS	high polyreactivity
QVQLVESGGGLVQAGGSLRLSCAASGFTFRIYTMGWYRQAPGKERELVAAIRWSDGTTYYADSVKGRFTISRDNAKNTVYLQMNSLKPEDTAVYYCAAYTYYYYYWGQGTQVTVSS	high polyreactivity
QVQLVESGGGLVQAGGSLRLSCAASGSTFRPYAMGWYRQAPGKERELVARITKNGGSTYYADSVKGRFTISRDNAKNTVYLQMNSLKPEDTEVYYCAVRAWDPYTGKSDYWGQGTQVTVSS	low polyreactivity
QVQLVESGGGLVQAGGSLRLSCAASGRIFDYYAMGWYRQAPGKERELVAVISRGGRTKYADSVKGRFTISRDNAKNTVYLQMNSLKPEDTAVFYCAAYPSYYGDSGLRYDYWGQGTQVTVSS	high polyreactivity
QVQLVESGGGLVQAGGSLRLSCAASGRIFSFYTMGWYRQAPGKERELVAAITWSGGSTYYADSVKGRFTISRDNAKNTVYLQMNSLKPEDTAVYYCAADFYLGPTWYYYWGQGTQVTVSS	high polyreactivity
QVQLVESGGCLVQAGGSLRLMCAASGSTFRVNAMGWSRQAPGKERELVAAITRGGSTNYADSVKGRFTISRDNAKNTVYLQMNSLKPEDTAVYYCNAGDDFGRYVPFSWGRFDYWGQGTQVTESS	low polyreactivity
QVQLVESGGRLGQAGGSLRISCAASGGTFWYYDMGWYRQAPGKERELVAAISSGGNTYYADSVKGRFTISRDNAKITVYLQMNSLKPEDTAVYYCAALPKYGSYYYYPPFDYDYWGQGTQVTVSS	low polyreactivity
QVQLVESGGGLVQAGGSLRISCAASGSIFYNYAMGWYRQAPGKERELVAAINRSGGITFYADSVKGRFTISRDNAKNTVYLQMNSLKPEDTAVYYCAADRSFGHHYWYTGKRYDYWGQGTQVTVSS	low polyreactivity
QDQLVESGGCLVQAGGSLRLSCAASGSIFTDNVMGWYRQATGKERELVAAITSTGGNTYYADSVKGRFTISRDNAKNTVYLQMNSLKREDTAVYYCNKDVARYPYGKFDYWGQGTQVTVSS	low polyreactivity
QVQIVESGGGLVQAGGSLRLSCAASGRTFTHYAMGWYRQAPGKERELVAAISSGGGTYYADSVKGRFTIARDNAKKTVYLQMNSLKPEDTAVYYCNADYSNYLDPFRTYGYWGQGTQVTVSS	low polyreactivity
QGQLVESGGGLVQAGGSLRLSCAASGSTFYTNAMGWYRQAPGKERELVAAISGSGGSTYYADSVKGRFTISRDNAKNTVYVQMNSRKPEDTAVYYCAARSRYYYTRFDYWGQGTQVTVSS	low polyreactivity
QVQLVESGGGLVQAGGSLRLSCAASGSTFSYYTMGWYRQAPGKERELVADIDSGDDTYYADSVKGRFTISRDNAKNTVYLQMNSLKPEDTAVYYCATEFNRPHFTVRVRFKYYYWGQGTQVTVSS	low polyreactivity
QVQLVESGGGLVQAGGSLRLSCAASGSTFGKYAMGWYRQAPGKERELVAAITWSGASTFYADSVKGRFTISRDNAKNTVYLQMNSLKPEDTAVYYCAARSYKSYYIFDYWGQGTQVTVSS	low polyreactivity
QVQLVESGGGLVQAGGSLRLSCAASGGIFYRYAMGWYRQAPGKERELVAVISRSGSTYYADSVKGRFTISRDNAKNTVYLQMNSQKPEDTAVYYCNKYGQVPGYFSLDYWGQGTQVTVSS	high polyreactivity
QVQLVESGGGLVQAGGSLRLSCAASGLTSRPYVMGWYRQAPGKERDLVAAISQTGGRTYYADSVKGRFTISRDNAKNTVYLQMNSLKPEDTAVYDCAAKYSNGSGFDYWGQGTQVTVSS	high polyreactivity
QVQLVESGGGLVQAGGSLRLSCAASGRIFWSYPMGWYRQAPGKERELVAAITWRTGRTYYADSVKGRFTISRDNAKNTVYLQMNSLKPEDTAVYYCAAEGYLWGQSYNGLNYDSWGQGTQVTVSS	low polyreactivity
